Experimental data from patent publication US20110250202A1.

B1: 3B12 antibody (antibody, V domains shown)
VH: EVQLQQSGAEFVKPGASVKLSCRVSGFNIKDYYINWVKQRTEQGLEWIGRIDPEDGETKYAPKFQGKATITADTSSNTANLHLSSLTSADTAVYYCASSGYAFAWFLYWGQGTLVTVSA
VL: DILLTQSPAILSVSPGERVSFSCRASQSIGTSIHWYQQRTNGSPRLLIKYASESISGIPSRFSGSGSGTDFTLSINSVESEDIADYYCQQSNRWPFTFGSGTKLEIKR
B2: 2B2 antibody (antibody, V domains shown)
VH: VQLQQSGAEFVKRPGASVKLSCRVSGFNIKDYYINWVKQRTEQGLEWIGRIDPEDGETKYAPKFQGKATITADTSSNTANLHLSSLTSADTAVYYCASSGYAFAWFLYWGQGTLVTVSA
VL: DILLTQSPAILSVSPGERVSFSCRASQSIGTSIHWYQQRTNGSPRLLIKYASESISGIPSRFSGSGSGTDFTLSINSVESEDIADYYCQQSNRWPFTFGSGTKLEIKR
B3: 2G7 antibody (antibody, V domains shown)
VH: EVQLQQSGAELVKPGASVKLSCTASGFNIKDYFIHWVNQRTKQGLEWIGRIDPEDGETKYAPKFQGKATLTADTTSNTADLQLSSLTSEDTAVYYCVLYYSRSFDYWGQGTTLTVSS
VL: QNVLTQSPAIMSASPGEKVTMTCSASSSVSYMHWYQQKSGTSPKRWIYDTSKLASGVPARFSGSGSGTSYSLTISSMEAEDAATYYCQQWSSNPLTFGAGTKLELKR

Experiments:
[1] = molecular target: recombinant penicillin binding protein 2a (PBP2a) (Staphylococcus aureus); assay: SPR (BIACORE), rPBP2a coupled on CM5 chip, antibody flowed at 0 to 5 nM; culture supernatant 1
[2] = molecular target: recombinant penicillin binding protein 2a (PBP2a) (Staphylococcus aureus); assay: SPR (BIACORE), rPBP2a coupled on CM5 chip, antibody flowed at 0 to 5 nM; purified antibody
[3] = molecular target: recombinant penicillin binding protein 2a (PBP2a) (Staphylococcus aureus); assay: SPR (BIACORE), rPBP2a coupled on CM5 chip, antibody flowed at 0 to 5 nM; culture supernatant 2

| Binder | Kd [1] | Kd [2] | Kd [3] |
| --- | --- | --- | --- |
| B1 | 4850 pM | 176 pM | 6050 pM |
| B2 | – | 359 pM | 2150 pM |
| B3 | 0.204 pM | 1.18 pM | 0.0022 pM |
